The nature of this series: soluble on expression in E. coli; label from the status in PepcDB or PDB records.
As for “MGAAKPIFVEHSIVIDRPAQQVYDYWRKLENLPQIMSHLESVTVLDDKRSRWVAKAPLGTHVEWEAEVVNDKPGERIGWHSLPGATVDNAGSVQFESLPDDKTRVHVALSYRPPAGPLGAAVAKLFGEEPSQQIAEDLQKFKATFEGLEHHHHHH”, the “soluble on expression in E. coli” value is listed as “not soluble”.

Take “EEIDCNDKDLFKAVDAALKKYNSQNQSNNQFVLYRITEATKTVGSDTFYSFKYEIKEGDCPVQSGKTWQDCEYKDAAKAATGECTATVGKRSSTKFSVATQTCQITPAEGPVVTAQYDCLGCVHPISTQSPDLEPILRHGIQYFNNNTQHSSLFMLNEVKRAQRQVVAGLNFRMTYSIVQTNCSKENFLFLTPDCKSLWNGDTGECTDNAYIDIQLRIASFSQNCDIYPGKDFVQPPTKICVGCPRDIPTNSPELEETLTHTITKLNAENNATFYFKIDNVKKARVQVVAGKKYFIDFVARETTCSKESNEELTESCETKKLGQSLDCNAEVYVVPWEKKIYPTVNCQPLGMISLMKRPPGFSPFRSSRIGEIKEETTSHLRSCEYKGRPPKAGAEPASEREVS”: the “soluble on expression in E. coli” value is “not soluble”.

In the case of “MGSDKIHHHHHHMEKEIKNIIEMRHIVKDFNGFKANNDINLTLRKGEILALLGENGAGKSTLMSILSGLLEPTSGEIYVRGEKVNISGPNVATSLGIGMVHQHFMLAQAFTVLENIILGHETTKGLALDFKTAREKILALSKQYGLAIDPDAKISDITVAQQQRVEILKVLYRGADILIFDEPTAVLTPQEITEFIKIMKNLAKEGKSIILITHKLKEIKESADRVTVIRAGKSIQTVSVADANDEQLAEMMVGHHVNFKLDKAPLNLGKNILEVKDLHVNEDRGTDAVKGLSFNIRGGEILGLAGIDGNGQDELVEAITGLRHVEGGQVVINGQDLTNKPVRQITEAGVGHIPADRQKYGLILQLPLSENIASQTYYKEPYSKHGIMNEQTIREHARELIKKFDVRTTSEQLPASDLSGGNQQKAIIARELDRDADLIIAFQPTRGLDVGAIEYIHSQLLKQRDAGKAVLLVSYELDEILQLSDRIVVLHDGAESGEVKPDQTSETELGLLMTGKNTKKEAAAND”, the “soluble on expression in E. coli” value is “not soluble”.

In the case of “MTAVKHTTESTFAKLGVRDEIVRALGEEGIKRPFAIQELTLPLALDGEDVIGQARTGMGKTFAFGVPLLQRITSGDGTRPLTGAPRALVVVPTRELCLQVTDDLATAGKYLTAGPDTDDAAAVRRRLSVVSIYGGRPYEPQIEALRAGADVVVGTPGRLLDLCQQGHLQLGGLSVLVLDEADEMLDLGFLPDIERILRQIPADRQSMLFSATMPDPIITLARTFMVRPTHIRAEAPHSSAVHDATEQFVYRAHALDKVELVSRVLQARDRGATMIFTRTKRTAQKVADELTERGFAVGAVHGDLGQLAREKALKAFRTGGIDVLVATDVAARGIDIDDVTHVINYQCPEDEKMYVHRIGRTGRAGRTGVAVTLVDWDELPRWSMIDQALGLGSPDPAETYSNSPHLYAELAIPATAGGTVGPARKSQGRRRDTDCDGQKTAQHARNTPRRRRTRGGKPVTGHPGTNPISSPIVGGDATSEPGSGTASDSGSDVVSGSRSGNGEAARRRRRRRRRPTHAQDGFAARAN”, the “soluble on expression in E. coli” value is “soluble”.

With “MAAKNAFYAQSGGVTAVINASAAGVIEAARKQSGKIGRIYAGRNGIIGALTEDLIDTGQESDAAISALRYTPSGAFGSCRYKLKSLEQNRREYERLIEVFKAHDIGYFFYNGGGDSADTCLKVSQLSGTLGYPIQAIHVPKTVDNDLPITDCCPGFGSVAKYIAVSTLEASFDVASMSATSTKVFVLEVMGRHAGWIAAAGGLASSPEREIPVVILFPEISFDKQKFLAKVDSCVKKFGYCSVVVSEGVKGDDGKFLSDQGVRDAFGHAQLGGVAPVVASMVKEGLGLKYHWGVADYLQRAARHIASKTDVEQAYAMGQAAVEFAVQGHNSVMPTIERISARPYQWKVGMAQLSQVANVEKMMPENFITEDGFGITDLCREYLAPLIEGEDYPPYKDGLPDYVRLKNVAVPKKLSGFTLLEHHHHHH”, the “soluble on expression in E. coli” value was “not soluble”.

As for “MGSDKIHHHHHHLYFLDNQLAQQIVDRTMAIIGHNINVMNSQGVILGSGEPHRIGSTHEGALLAISQNRTVELNSASAASLQGVKPGINLPLHYQGEIIGVIGITGEPEHLKAFGELLKMTAEMIVEQANSLDVAQWRARQQEEFILQLIKPEGRDLNHLKIWAQRLDIDLEMPRVAAVLRISDDAGDELANSQLKTVLHLLETPSRGNLIAMTSMTELVILKPAFLDGKAWSAEAESLRIDRLLKRLPSELNARLKISLGHYFPATMDINRSYQTALETLNFGQQLHPEQSKYLYEDHALLVMLSGLKHDWRGEQLLRPFQRLIDRDKNALLRKTLASYLGHFGDQQACAKALFIHRNTLRYRLDKIAQITKVDIQKLDGLLQLYLGQVLLSRGQDQG”, the “soluble on expression in E. coli” value is reported as “not soluble”.

Turning to “MHEQLNSRVETCYLQAETFFKRTFKRPVVSFQLRGQKAGVAHLHENLLRFNPQLYQENAEDFLRQTVPHEVAHLVAHQLFGGGIQPHGEEWQLIMRGVYELPPNRCHTYAVQRRSVIRYIYRCPCPDSDFPFTSQRHSMVRKGRRYLCRRCREPLMFSGETRTELEHHHHHH”, the “soluble on expression in E. coli” value was “not soluble”.

Consider “MGSDKIHHHHHHMFNNHEIDTILSTLRMEADPSLHPLFEQFEKFYEEKLWFQLSESLTKFFDDAKSTPLRLRLYDNFVSKFYDKINQLSVVKYLLASLKDSKDFDESLKYLDDLKAQFQELDSKKQRNNGSKDHGDGILLIDSEIARTYLLKNDLVKARDLLDDLEKTLDKKDSIPLRITNSFYSTNSQYFKFKNDFNSFYYTSLLYLSTLEPSTSITLAERQQLAYDLSISALLGDKIYNFGELLHHPIMETIVNDSNYDWLFQLLNALTVGDFDKFDSLIKVQISKIPILAQHESFLRQKICLMTLIETVFVKNIRMLSFEDISKATHLPKDNVEHLVMRAISLGLLKGSIDQVNELVTISWVQPRIISGDQITKMKDRLVEWNDQVEKLGKKMEARGQSIWV”, for which the “soluble on expression in E. coli” value is on record as “not soluble”.

Turning to “GAMEAIYAYEAQGDDEISIDPGDIITVIRGDDGSGWTYGECDGLKGLFPTSYCK”, the “soluble on expression in E. coli” value was “soluble”.

Regarding “GYITVGNENSTPIELYYEDQGSGQPVVLIHGYPLDGHSWERQTRELLAQGYRVITYDRRGFGGSSKVNTGYDYDTFAADLHTVLETLDLRDVVLVGFSMGTGELARYVARYGHERVAKLAFLASLEPFLVQRDDNPEGVPQEVFDGIEAAAKGDRFAWFTDFYKNFYNLDENLGSRISEQAVTGSWNVAIGSAPVAAYAVVPAWIEDFRSDVEAVRAAGKPTLILHGTKDNILPIDATARRFHQAVPEADYVEVEGAPHGLLWTHADEVNAALKTFLAK”, the “soluble on expression in E. coli” value is listed as “soluble”.

In the case of “MAHHHHHHMTRTKVKKVQMQMKARETVAPPSTACTTTRCLYTLTTFDVKSGGVKTSGEFPAGGGPKLPRDPLLHYFVKSLHGFLSTCLVVTSQRLVTFSANNNFFCIATVFPTLHTSPSVKNSKSLALRGKTENVVTERLGV”, the “soluble on expression in E. coli” value is “not soluble”.

Turning to “VMVFISSSLNSFRSEKRYSRSLTIAEFKCKLELVVGSPASCMELELYGADDKFYSKLDQEDALLGSYPVDDGCSIHVIDHSG”, the “soluble on expression in E. coli” value was “soluble”.

Consider “GSHMKEDQVVAEEPGFQDEEESLFQDIDLLQKHGINVADIKKLKSVGICTIKGIQMTTRRALCNVKGLSEAKVDKIKEAANKLIEPGFLTAFEYSEKRKMVFHITTGSQEFDKLLGGGIESMAITEAFGEFRTGKTQLSHTLCVTAQLPGAGGYPGGKIIFIDTENTFRPDRLRDIADRFNVDHDAVLDNVLYARAYTSEHQMELLDYVAAKFHEEAGIFKLLIIDSIMALFRVDFSGRGELAERQQKLAQMLSRLQKISEEYNVAVFVTNQMTADPGATMTFQADPKKPIGGHILAHASTTRISLRKGRGELRIAKIYDSPEMPENEATFAITAGGIGDAKE”, for which the “soluble on expression in E. coli” value is “soluble”.

Regarding “MKYDLIIIGSGSVGAAAGYYATRAGLNVLMTDAHMPPHQHGSHHGDTRLIRHAYGEGEKYVPLVLRAQMLWDELSRHNEDDPIFVRSGVINLGPADSTFLANVAHSAEQWQLNVEKLDAQGIMARWPEIRVPDNYIGLFETDSGFLRSELAIKTWIQLAKEAGCAQLFNCPVTAIRHDDDGVTIETADGEYQAKKAIVCAGTWVKDLLPELPVQPVRKVFAWYQADGRYSVKNKFPAFTGELPNGDQYYGFPAENDALKIGKHNGGQVIHSADERVPFAEVVSDGSEAFPFLRNVLPGIGCCLYGAACTYDNSPDEDFIIDTLPGHDNTLLITGLSGHGFKFASVLGEIAADFAQDKKSDFDLTPFRLSRFQ”, the “soluble on expression in E. coli” value was “soluble”.

As to “MNKNKPFIVVIVGPTASGKTELSIELAKRINGEIISGDSMQVYKHMNIGTAKVTPEEMDGIPHHLIDILNPDDTFSAYEFKRLAEDLITDITNRGKVPIIAGGTGLYIQSLIYNYELEDETVTPAQLSIVKQKLSALEHLDNQQLHDYLAQFDAVSAENIHPNNRQRVLRAIEYYLKTKKLLSNRKKVQQFTENYDTLLLGIEMSRKTLYSRINKRVDIMLDHGLFREVQQLVEQGYESCQSMQAIGYKELIPVINGQMIYEDAVNDLKQHSRQYAKRQMTWFKNKMSVHWLDKENMSLQMMLDEITTQIKMAGDPLEHHHHHH”, the “soluble on expression in E. coli” value was “not soluble”.

For the sequence “MAHHHHHHMEDKLDFTKLRDPFDMDEINRKLQEKVADDDPVQKAMPDPMDPKFRAPLRCSACGAVIEHAVRLLRPIIERQSERAARSGGVLPADALPKEYEMVDIFENLCGEVGRLYGLEVEKDKKRPTLRFSKSFGVSRLQGAWMPSFLTSTCEGVLDVEGEEKLAAMILGVARSEAEAGRGKVISMNPDQGIVDKVREMVCTKWEESAKGCDAYGVAIDPRETDNDDGAEEAASDL”, the “soluble on expression in E. coli” value is reported as “not soluble”.

Turning to “MKVTKADIVISAVKPEQYPDGDLPEIALAGRSNVGKSSFINKILNRKKLVRISSKPGKTQTLNFFLINEMMHFVDVPGYGYAKVSKTERAAWGKMIETYFTTREQLDAAVLVVDLRHKPTNDDVMMYDFLKHYDIPTIIIATKADKIPKGKWQKHLKVVKETLDIESGDEVVLFSSETGLGKEEAWKAIHKFTKTKNA”, the “soluble on expression in E. coli” value is “not soluble”.

With “MAQLFFKYGAMNSGKTIEILKVAHNYEEQDKPVVLMTSGLDTRDGVGKVSSRIGLRRDAIPIFEETNVFDLINDLSYKPFCVLVDECQFLNKHHVIEFARIVDELDIPVMAFGLKNDFRNELFEGSKYLLLYADKLEELKTICWFCHKKATMNLHYIDGNPVYEGDQVQIGGNEAYYPVCRKHYFHPKTVNEEQLEHHHHHH”, the “soluble on expression in E. coli” value is recorded as “soluble”.

As to “MAYWLVKSEPSVWSWDQQVAKGAAGEAWTGVRNHSAKLHMVAMRRGDRAFYYHSNEGKEIVGIAEIIREAYPDPTDASGKFVCVDIKADKPLKTPVTLAAVKAEPRLADMALMKYSRLSVQPVTAEEWKLVCKMGGLLEHHHHHH”, the “soluble on expression in E. coli” value is on record as “not soluble”.

“MPVVERTTFLAGYSPQQVLDFCLEGANFPKIFPERVTPLGGLDINDLRISVGRQFSFLHWMFGVIPAKWTVVIREVGDRHFVDEMLKGPLRAFRHEHRVEAAEGGTLYTDRVTYRAIGGAPLEWLMVNAYMARIFDARHRNMLRLLSLEHHHHHH”: the “soluble on expression in E. coli” value was “soluble”.

In the case of “SAPPLLSLPLCILPPGSGSPRLVCYCERDSGGDGDRDDFNLYVTDAAELWSTCFSPDSLARLKARFGLSGAEDIHSRFRAACQQQAVTVSLQEDRALITLSGDTPALAFDLSKVPSPEAAPRLQALTLSLAEHVCNLERRLAAAEETITSPKKNTQPAGTQFLPELDHQRGSSGPGVRRRCPGESLINPGFKSKKPAAGVDFDET”, the “soluble on expression in E. coli” value is “soluble”.

As to “MPHSQTSAPRDSLAGVRLARGASPWLLPTVATAAVSLLRARRSGTAKAVAVPATALAAGMLWFFRDPEREITQGRVVSPADGVVQSIMPWKDGRTRVAIFMSPLNVHVNRAPLAGTVTSVEHVPGGFVPAFNKESENNERVVWHFDTELGDIEMIQIAGAVARRIVPYVPQGTKVEQGERVGLIRFGSRVDLYLPEGVEVDVEVGQKTVAGVTRIDRDLEHHHHHH”, the “soluble on expression in E. coli” value is “not soluble”.

Source of the values: the DeepSol protein solubility set.
